The text below walks through data of patent publication US20260265334A1, “STAPLED PEPTIDES” (THE FLOREY INSTITUTE OF NEUROSCIENCE AND MENTAL HEALTH, priority 2023, published 2026).

Bridge positions count the residues as written; N and C are the ends. Square brackets hold non-standard residues; d marks the D form. Ends that are not written are not given here. Peptide text beside a SMILES is read from it. I, II: the chains in the order shown. αMeF = C[C@](N)(Cc1ccccc1)C(=O)O Where only a bound is given, the exact number is not on record here.

Experiment [1] concerns the target T1, RXFP4 (Homo sapiens, UniProt Q8TDU9). Nature of the experiment: Inhibition of forskolin-induced cAMP activity in CHO-K1-RXFP4 cells (pCRE β-galactosidase reporter). In kind it is cell-based. The arrangement: expressed in transfected cells. The following applies: RXFP4; Table 5; read-out: cAMP pEC50 (converted). The protocol: For agonist assays, cells were stimulated with forskolin (5 μM for RXFP3, 1 μM for RXFP4)±increasing concentrations of each peptide for 6 hours. Data were expressed as the % forskolin activity, whereby 100% was defined as forskolin alone and 0% as maximum agonist stimulation (1 μM Analogue 2 for RXFP3 and 1 μM Analogue 13 for RXFP4). Data were analysed and plotted using GraphPad Prism 9 and are expressed as the mean±SEM of the pooled data. Statistical analysis was conducted using one-way ANOVA with Uncorrected Fisher's LSD post-hoc analysis using GraphPad Prism 9.
An additional analogue of INSL5 was utilised as a control, INSL5-A13, having an A chain (SEQ ID NO: 9) and a B chain (SEQ ID NO: 10) with a first disulfide bond between Cys 1 of the A chain and Cys 7 of the B chain, and a second disulfide bond between Cys 14 of the A chain and Cys 19 of the B chain:
Competition binding and cAMP activity assay were conducted by a procedure analogous to that described above for Example 3. The results are shown in FIG. 24 (RXFP3) and FIG. 25 (RXFP4).

Experiment [2] deals with T1, RXFP4. Nature of the experiment: SmBiT-R3/I5 NanoBiT competition binding assay, HEK-LgBiT-RXFP4 membrane fractions. The arrangement: expressed in transfected cells. The following applies: RXFP4, 2 nM SmBiT-R3/I5; Table 5; read-out: SmBiT R3/I5 pKi (converted). The protocol: Furthermore, a SmBiT-R3/15 competition binding assay was performed. All peptides were examined for their binding affinity to RXFP4 utilizing a competition NanoLuc® Binary Technology (NanoBiT™) binding assay. Briefly, HEK-LgBiT-RXFP4 crude membrane fractions (25 μg protein) were incubated with 2 nM SmBiT-R3/15 and increasing concentrations of competing peptides in binding buffer (0.5% BSA, 20 mM HEPES pH 7.5, 1.5 mM CaCl2), 50 mM NaCl) in a total of 100 μL in 96-well Optiplates (PerkinElmer, Waltham MA, USA). After 1 hour of shaking at room temperature, 1.25 μM final concentration of coelenterazine 400a was added, and luminescence measurements were recorded using a MicroBeta Microplate Counter (PerkinElmer, Waltham MA, USA). Each concentration-response curve was tested in triplicate, and each experiment was repeated at least three times with data being expressed as the mean±standard error of the mean (S.E.M) % specific.

The target of experiment [3] is T2, RXFP3 (relaxin family peptide receptor 3) on CHO-K1-RXFP3 cells (UniProt Q9NSD7 1-469, limits assumed).
T2 sequence (looked up): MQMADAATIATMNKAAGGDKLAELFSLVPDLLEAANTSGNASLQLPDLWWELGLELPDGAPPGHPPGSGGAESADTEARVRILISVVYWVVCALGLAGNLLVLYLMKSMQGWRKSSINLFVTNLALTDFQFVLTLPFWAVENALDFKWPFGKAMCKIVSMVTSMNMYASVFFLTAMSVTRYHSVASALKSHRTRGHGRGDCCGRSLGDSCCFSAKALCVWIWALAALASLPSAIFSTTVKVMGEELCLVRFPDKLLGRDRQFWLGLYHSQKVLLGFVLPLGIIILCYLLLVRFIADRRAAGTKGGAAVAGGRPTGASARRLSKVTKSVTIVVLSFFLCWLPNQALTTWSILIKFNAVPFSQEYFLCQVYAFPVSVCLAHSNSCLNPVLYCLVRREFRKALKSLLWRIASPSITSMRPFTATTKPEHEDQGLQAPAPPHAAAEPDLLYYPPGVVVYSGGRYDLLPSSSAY
In words: cell-based or functional assay.

Experiment [4] concerns the target T3, RXFP4 (relaxin family peptide receptor 4) on CHO-K1-RXFP4 cells (UniProt Q8TDU9 1-374, limits assumed). In words: cell-based or functional assay.
In experiment [5] the target is T3, RXFP4 (relaxin family peptide receptor …). In words: competition with 5 nM Eu-DTPA-R3/I5 on CHO-K1-RXFP4 cells.
For experiment [6], the target named is T4, RXFP3 (relaxin family peptide receptor 3) on CHO-K1-RXFP3 cells, Q9NSD7.
T4 chain: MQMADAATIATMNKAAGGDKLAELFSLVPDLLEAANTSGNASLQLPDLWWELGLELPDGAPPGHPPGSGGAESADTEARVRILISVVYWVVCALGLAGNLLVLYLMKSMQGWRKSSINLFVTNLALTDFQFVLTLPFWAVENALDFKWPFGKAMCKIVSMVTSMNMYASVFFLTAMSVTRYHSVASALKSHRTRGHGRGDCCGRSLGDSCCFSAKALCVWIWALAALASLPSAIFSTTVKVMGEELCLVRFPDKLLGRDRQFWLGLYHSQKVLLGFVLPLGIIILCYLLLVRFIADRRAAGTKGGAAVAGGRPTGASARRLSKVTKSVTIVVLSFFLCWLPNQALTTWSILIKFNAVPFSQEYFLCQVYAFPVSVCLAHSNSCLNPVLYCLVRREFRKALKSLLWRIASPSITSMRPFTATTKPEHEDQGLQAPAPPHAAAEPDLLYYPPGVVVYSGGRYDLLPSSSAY
Nature of the experiment: cell-based or functional assay.

In experiment [7] the target is T2, RXFP3 (relaxin family peptide receptor …). In words: cell-based or functional assay. This is another data set of the same source.
The target in experiment [8] is T3, RXFP4 (relaxin family peptide receptor …). Nature of the experiment: competition with Eu-R3/I5 on CHO-K1-RXFP4 cells.
In experiment [9] the target is T2, RXFP3 (relaxin family peptide receptor …). Nature of the experiment: competition with Eu-H3B1-22R on CHO-K1-RXFP3 cells.

T3 sequence (Q8TDU9 whole entry): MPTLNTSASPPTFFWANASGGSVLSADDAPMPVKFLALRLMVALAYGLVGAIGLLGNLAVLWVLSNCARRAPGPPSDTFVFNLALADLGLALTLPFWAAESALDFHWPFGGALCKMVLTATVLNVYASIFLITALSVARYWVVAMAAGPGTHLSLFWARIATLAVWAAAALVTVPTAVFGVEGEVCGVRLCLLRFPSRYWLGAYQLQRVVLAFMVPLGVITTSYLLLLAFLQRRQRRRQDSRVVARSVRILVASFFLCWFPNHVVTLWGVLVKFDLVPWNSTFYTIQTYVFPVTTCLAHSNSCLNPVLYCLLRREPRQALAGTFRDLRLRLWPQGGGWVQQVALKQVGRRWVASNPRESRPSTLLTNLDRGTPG
T1 sequence (Q8TDU9 whole entry): as above

Consider `CC[C@H](C)[C@H](NC(=O)[C@H](Cc1ccc(O)cc1)NC(=O)[C@@H](NC(=O)[C@@H](NC(=O)[C@](C)(Cc1ccccc1)NC(=O)[C@H](CCCNC(=N)N)NC(=O)[C@@H](NC(=O)[C@H](Cc1ccc(O)cc1)NC(=O)[C@](C)(Cc1ccccc1)NC(=O)[C@H](CC(C)C)NC(=O)CNC(=O)[C@@H](N)CO)[C@@H](C)CC)C(C)C)[C@@H](C)CC)C(=O)N[C@@H](CCC(=O)O)C(=O)NCC(=O)NCC(=O)N[C@@H](CO)C(=O)N[C@@H](CCCNC(=N)N)C(=O)N[C@@H](Cc1c[nH]c2ccccc12)C(=O)O` [πI5B7-24-GG-S19E] (H-SGL[αMeF]YIR[αMeF]VIYIEGGSRW-OH; N-terminus and C-terminus assumed), for which the EC50 at RXFP4 [1] was 0.0407 µM. Moreover, the Ki at RXFP4 [2] was 0.00741 µM.
In the case of SGREFIRAVIFTSGGSRW [H3B10-27 (native B10-27)], the “cAMP pEC50” value in experiment [3] was < 5.

B1: Human insulin-like peptide 7 (INSL7), also known as human relaxin-3 (H3 relaxin) (ligand)
chain 1: DVLAGLSSSCCKWGCSKSEISSLC
chain 2: RAAPYGVRLCGREFIRAVIFTCGGSRW
modifications: disulfide I:10-I:15; not fully specified; cysteine pairing not given here
Broadly, the pKi is the negative decadic logarithm of the Ki, by convention in mol/L. A lower pKi goes with a large Ki. As to B1, the “cAMP pEC50” value in [4] came out at 8.94. The same molecule showed a pKi in [5] of 8.42.
On to SGRFFIRFVIFTSGGSRW (modifications not checked) [H3B10-27(13/17F)], for which the cAMP pEC50 in experiment [6] was < 5.
In the case of RAAPYGVRLSGREFIRAVIFTSR (23 residues) [H3B1-22R (Formula XI, known single chain antagonist of RXFP3)], the “RXFP3 Antagonist potency pIC50” value in experiment [7] was determined as 6.25. Further, the binding result in [8] is “no binding”. Moreover, in experiment [9], the pKi came out at 7.64.
